From US20100047226

Experiments:
[1] = biological target: active AKT1 (purified, Upstate Biotechnology) (UniProt P31749)
[2] = biological target: active AKT1 mutant with a Ser473Asp mutation (UniProt P31749)
[3] = biological target: active AKT1 mutant with a deletion in the PH domain (UniProt P31749)
[4] = tested on: T1, control peptide (adjacent overlapping PKAc peptide)
T1 sequence: GFAKRVKGRTWTL

[5] = tested on: T2, ZaTa peptide (PKAc fragment flanking Thr-197)
T2 sequence: AKRVKGRTWTLCGTPEY

[6] = tested on: full-length, active PKAc (purified)

Chain of active AKT1 (purified, Upstate Biotechnology) (P31749 whole entry, looked up): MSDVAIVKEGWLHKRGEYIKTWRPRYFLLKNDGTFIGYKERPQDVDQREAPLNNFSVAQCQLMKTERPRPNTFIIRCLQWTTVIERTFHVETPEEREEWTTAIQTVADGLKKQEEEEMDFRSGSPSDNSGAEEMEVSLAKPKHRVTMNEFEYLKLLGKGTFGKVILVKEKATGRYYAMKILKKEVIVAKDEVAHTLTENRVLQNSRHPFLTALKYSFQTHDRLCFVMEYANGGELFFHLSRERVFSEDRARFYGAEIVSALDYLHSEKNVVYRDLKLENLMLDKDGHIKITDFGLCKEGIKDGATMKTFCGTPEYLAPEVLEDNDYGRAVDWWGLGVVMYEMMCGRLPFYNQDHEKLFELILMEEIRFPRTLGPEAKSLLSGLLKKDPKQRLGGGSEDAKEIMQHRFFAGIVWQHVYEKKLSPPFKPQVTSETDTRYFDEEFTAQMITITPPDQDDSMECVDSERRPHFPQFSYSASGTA
Chain of active AKT1 mutant with a deletion in the PH domain (P31749 whole entry, looked up, stated change not applied, the tested form may be a part): as the sequence (P31749 whole entry, looked up) above
Chain of active AKT1 mutant with a Ser473Asp mutation (P31749 whole entry S473D, the tested form may be a part): as the sequence (P31749 whole entry, looked up) above, with S473D counted along it

Q: For human PKAc expressed in Sf9 cells, which “AKT kinase activity in vitro” value [1] is on record?
A: the same inhibitory effect was observed ... with human PKAc expressed in Sf9 cells

Q: Which results are given for full-length, active PKAc (purified)?
A: AKT kinase activity in vitro [2]: The decrease in the catalytic activity of AKT by PKAc was also observed with two mutants and active forms of AKT1 ... the other one with a Ser473Asp mutation; AKT kinase activity in vitro (Ser-9 GSK-3 GST fusion protein as substrate) [1]: the kinetic activity of AKT was dramatically reduced; AKT kinase activity in vitro [3]: The decrease in the catalytic activity of AKT by PKAc was also observed with two mutants and active forms of AKT1, one with a deletion in the PH domain

Q: active PKAc purified from bovine tissue was tested. Which “AKT kinase activity in vitro” value [1] did it give?
A: the same inhibitory effect was observed with active PKAc purified from bovine tissue

Q: How did the “AKT1 in vitro catalytic activity (32P incorporation into Ser-21 GSK-3 substrate peptide)” value [4] turn out when “active AKT1 (purified, Upstate Biotechnology)” was run?
A: the adjacent overlapping peptide was not able to inhibit AKT1

Q: What about the “IC-50 of AKT1 catalytic activity (32P incorporation, CPM)” value [5] of the same substance?
A: IC-50 of the ZaTa peptide was within a nanomolar range in these assays

Q: And the “IC-50 of AKT1 in vitro catalytic activity (32P incorporation into Ser-21 GSK-3 substrate peptide)” value [5]?
A: IC-50 ˜0.1 µM

Q: What about the “phosphorylation of Ser-9 GSK-3 GST substrate in the AKT1 kinase assay (western blot)” value [5] of the same substance?
A: The phosphorylation level of Ser-9 GSK-3 GST substrate was significantly reduced after adding the ZaTa peptide to the AKT1 kinase assay

Q: And the “phosphorylation of ZaTa by AKT (control kinase reactions with peptide and AKT only)” value [5]?
A: ZaTa peptide itself was not a substrate for AKT

Q: What about the “PKA kinase activity in vitro (phosphorylation of DARPP-32 at Thr-34)” value [6] of the same substance?
A: addition of the active AKT to the PKA kinase assay increased the catalytic activity of PKAc

Q: And the “phosphorylation level of PKAc at Thr-197 in vitro” value [6]?
A: the increase in the PKAc catalytic activity was accompanied by an increase in the phosphorylation level of PKAc at Thr-197
